The values that follow come from US9573987B2 (priority 2011, dated 2017).

In data set [1] the target is T1, insulin receptor (Homo sapiens, UniProt P06213). Description: Insulin receptor binding assay (competition, scintillation proximity). The arrangement: expressed in transfected cells; plasma membrane fragments. The note with it: for Ratio: IGF-1 receptor IC50 over insulin receptor IC50.
Data set [2] addresses T2, IGF-1 receptor (Homo sapiens, UniProt P08069). Description: IGF-1 receptor binding assay (competition, scintillation proximity). To be noted: for IGF-1 Receptor % IGF-1 (in test): Table 9; for EC50: Table 15, read-out: Receptor Binding IGR-1R EC50. The arrangement: expressed in transfected cells; plasma membrane fragments.
In data set [3] the target is T2, IGF-1 receptor. Description: IGF-1 receptor phosphorylation assay, receptor transfected HEK293 cells. The class given is cell-based. Further details: expressed in transfected cells; host or cells: HEK293. As to the method:
(§1) Color development was stopped 5 min later by adding 0.05 ml 1 N HCl. Absorbance at 450 nm was measured on Titertek Multiscan MCC340 (ThermoFisher, Pittsburgh, Pa.).

Data set [4] deals with T1, insulin receptor. Description: Insulin receptor phosphorylation assay, receptor transfected HEK293 cells. The class given is cell-based. The arrangement: expressed in transfected cells; host or cells: HEK293. To be noted: Table 10. The protocol: as §1
A further data set deals with IR-B (Homo sapiens, UniProt P06213). Description: In vitro activity of pegylated analogs relative to native insulin at IR-B.
The target of a further data set is IR-A (Homo sapiens, UniProt P06213). Description: In vitro activity of pegylated analogs relative to native insulin at IR-A.
Data set [5] has as its system human mammary epithelial cells (HMEC). Description: Human mammary epithelial cells proliferation ([14C]-thymidine). Type of data set: cell-based. The protocol:
The plate was incubated 4 h at 37° C., 5% CO2 and 90% humidity.

Another data set has as its system blood glucose. Description: Comparative insulin tolerance test / insulin dose titration in mice.
Data set [6] deals with T3, insulin subtype A receptor (IR-A) (Homo sapiens, UniProt P06213).
T3 construct: expressed in transfected cells; host or cells: HEK293
Description: Insulin subtype A receptor phosphorylation, receptor transfected HEK293 cells. The class given is cell-based. As to the method: (§2) Color development was stopped 5 min later by adding 0.05 ml 1 N HCl. Absorbance at 450 nm was measured on Titertek Multiscan MCC340 (ThermoFisher, Pittsburgh, Pa.). […]

The target in data set [7] is insulin subtype B receptor (IR-B) (Homo sapiens, UniProt P06213). Description: Insulin subtype B receptor phosphorylation, receptor transfected HEK293 cells. The class given is cell-based. Further details: expressed in transfected cells; host or cells: HEK293. The protocol:
as §2

[8] abbreviates: Table 15, read-out: Proliferation HMEC EC50.
Setting [9] is: Table 15, read-out: Receptor Phosphorylation IGF-IR EC50.
The mark [10] stands for this setting: Table 15, read-out: Receptor Phosphorylation IR-B EC50.

Where “and” joins values, the source holds several entries; their conditions need not be identical. Equal entries are not always repeated. Where two headings read alike, the source gives them in different places. Where a SMILES comes first, the peptide text is derived from it. Bridges are numbered along the chain shown (N, C = ends). Where no end group is shown, it is not given here. Side-chain parts run from the residue outwards. [ ]: non-standard residue; d: D form. Phe(4-NH2) = Nc1ccc(C[C@H](N)C(=O)O)cc1; Aib = CC(C)(N)C(=O)O

`CC[C@H](C)[C@H](NC(=O)CN)C(=O)N[C@H](C(=O)N[C@@H](CC(=O)O)C(=O)N[C@@H](CCC(=O)O)C(=O)N[C@H]1CSSC[C@@H]2NC(=O)[C@H](CO)NC(=O)[C@H](C)NC(=O)[C@H](Cc3c[nH]cn3)NC(=O)[C@H](CSSC[C@H](NC(=O)[C@H](CC(C)C)NC(=O)[C@H](Cc3c[nH]cn3)NC(=O)[C@H](CCC(=O)O)NC(=O)[C@@H]3CCCN3C(=O)CN)C(=O)NCC(=O)N[C@@H](C)C(=O)N[C@@H](CC(=O)O)C(=O)N[C@@H](CC(C)C)C(=O)N[C@@H](C(C)C)C(=O)N[C@@H](CC(=O)O)C(=O)N[C@@H](C)C(=O)N[C@@H](CC(C)C)C(=O)N[C@@H](Cc3ccc(O)cc3)C(=O)N[C@@H](CC(C)C)C(=O)N[C@@H](C(C)C)C(=O)N[C@H](C(=O)NCC(=O)N[C@@H](CC(=O)O)C(=O)N[C@@H](CCCNC(=N)N)C(=O)NCC(=O)N[C@@H](Cc3ccccc3)C(=O)N[C@@H](Cc3ccc(O)cc3)C(N)=O)CSSC[C@@H](C(=O)N[C@@H](CC(N)=O)C(=O)O)NC(=O)[C@H](Cc3ccc(O)cc3)NC(=O)[C@H](CCSC)NC(=O)[C@H](CCC(=O)O)NC(=O)[C@H](CC(C)C)NC(=O)[C@H](CCCNC(=N)N)NC(=O)[C@H](CCCNC(=N)N)NC(=O)[C@H](CC(C)C)NC(=O)[C@H](CC(=O)O)NC2=O)NC1=O)C(C)C`: the Ratio at insulin receptor [1] was 80.6. Further, the “Insulin Receptor % insulin (in test)” value at insulin receptor [1] (Table 9) is 1576.7% and 1667.0%. Also, the “IGF-1 Receptor % IGF-1 (in test)” value at IGF-1 receptor [2] was found to be 12.9%. The “IGF-1 Receptor % IGF” value on IGF-1 receptor [3] (Table 10) is given as 181.395%. The EC50 at IGF-1 receptor [3] (total phosphorylation, Table 10) is 0.43 nM; at insulin receptor [4] (Insulin Receptor EC50:, total phosphorylation), 0.15 nM and 0.25 nM. The “Insulin Receptor % Insulin” value at insulin receptor [4] (listed as IGF-1 A (H8 A9 N21) B(H5D10Y16L17) DPI A-COOH) was 840% and 1080%.
For the molecule `CC[C@H](C)[C@H](NC(=O)CN)C(=O)N[C@H](C(=O)N[C@@H](CC(=O)O)C(=O)N[C@@H](CCC(=O)O)C(=O)N[C@@H](C)C(=O)N[C@@H](C)C(=O)N[C@@H](Cc1ccccc1)C(=O)N[C@@H](CCCNC(=N)N)C(=O)N[C@@H](CO)C(=O)N[C@@H](C)C(=O)N[C@@H](CC(=O)O)C(=O)N[C@@H](CC(C)C)C(=O)N[C@@H](CCCNC(=N)N)C(=O)N[C@@H](CCCNC(=N)N)C(=O)N[C@@H](CC(C)C)C(=O)N[C@@H](CCC(=O)O)C(=O)N[C@@H](CCSC)C(=O)N[C@@H](Cc1ccc(NC(=O)[C@@H]2CCCN2C(=O)C(C)(C)N)cc1)C(=O)N[C@@H](C)C(=O)N[C@@H](C)C(N)=O)C(C)C` [AiB Pro] (H-GIVDEAAFRSADLRRLEM[Phe(4-NH2)]([Pro-Aib])AA-NH2), the “Half Life (hr) 20% Plasma/PBS” value was 2.1 h.
Consider `CC[C@H](C)[C@H](NC(=O)CN)C(=O)N[C@H](C(=O)N[C@@H](CC(=O)O)C(=O)N[C@@H](CCC(=O)O)C(=O)N[C@H]1CSSC[C@@H]2NC(=O)[C@H](CO)NC(=O)[C@H](CCCNC(=N)N)NC(=O)[C@H](Cc3ccccc3)NC(=O)[C@H](CSSC[C@H](NC(=O)[C@H](CC(C)C)NC(=O)[C@@H](NC(=O)[C@H](CCC(=O)O)NC(=O)[C@@H]3CCCN3C(=O)CN)[C@@H](C)O)C(=O)NCC(=O)N[C@@H](C)C(=O)N[C@@H](CCC(=O)O)C(=O)N[C@@H](CC(C)C)C(=O)N[C@@H](C(C)C)C(=O)N[C@@H](CC(=O)O)C(=O)N[C@@H](C)C(=O)N[C@@H](CC(C)C)C(=O)N[C@@H](Cc3ccc(O)cc3)C(=O)N[C@@H](CC(C)C)C(=O)N[C@@H](C(C)C)C(=O)N[C@H](C(=O)NCC(=O)N[C@@H](CC(=O)O)C(=O)N[C@@H](CCCNC(=N)N)C(=O)NCC(=O)N[C@@H](Cc3ccccc3)C(=O)N[C@@H](Cc3ccc(O)cc3)C(=O)N[C@@H](Cc3ccccc3)C(=O)N[C@@H](CC(N)=O)C(=O)N[C@@H](CCCCN)C(=O)N3CCC[C@H]3C(=O)N[C@H](C(N)=O)[C@@H](C)O)CSSC[C@@H](C(=O)N[C@@H](C)C(N)=O)NC(=O)[C@H](Cc3ccc(O)cc3)NC(=O)[C@H](CCSC)NC(=O)[C@H](CCC(=O)O)NC(=O)[C@H](CC(C)C)NC(=O)[C@H](CCCNC(=N)N)NC(=O)[C@H](CCCNC(=N)N)NC(=O)[C@H](CC(C)C)NC(=O)[C@H](CC(=O)O)NC2=O)NC1=O)C(C)C` [IGF-1 A:B(E10Y16L17)], for which the Ratio at insulin receptor [1] is listed as 11.9. On insulin receptor [1] (Table 9), the “Insulin Receptor % insulin (in test)” value was 58.7% and 98.8%; the “Insulin Receptor % native insulin activity (0.6 nM)” value is 90.9% and 117.6%. For the same molecule, the “IGF-1 Receptor % IGF-1 (in test)” value at IGF-1 receptor [2] is 6.8% and 5.0%. Moreover, the “IGF-1 Receptor % IGF” value on IGF-1 receptor [3] (Table 10) was determined as 13%. For the same molecule, at insulin receptor [4], the “Insulin Receptor % Insulin” value was 49.2%.
Take “B^1(H5, H10, Y16, L17)25-C^1-A^1 (H8, N18, N21) (GPEHLCGAHLVDALYLVCGDRGFYGYGSSSRRAPQTGIVDECCHRSCDLRRLENYCN) [MIU-35]”: in the data set with IR-B, the “% Insulin Activity IR-B” value is recorded as 17.4%. Moreover, the “% Insulin Activity IR-A” value with IR-A is given as 61.4%.
On to “B^1(H5,Y16,L17)25-C^1(K8)-A^1(K14, N18,21) (GPEHLCGAELVDALYLVCGDRGFYGYGSSSRKAPQTGIVDECCFRSCDLKRLENYCN) [MIU-69, two 10K PEG chains, at the N-terminus and at amino acid A14]”, for which the “% Insulin Activity IR-B” value with IR-B amounted to 0.5%. Also, the “% Insulin Activity IR-A” value with IR-A was determined as 1.0%.
Consider “B^1(H5,Y16,L17)25-C^1(K8)-A^1(N18,21) (GPEHLCGAELVDALYLVCGDRGFYGYGSSSRKAPQTGIVDECCFRSCDLRRLENYCN) [MIU-67, two 10K PEG chains, at the N-terminus and at position C8 of the linking moiety]”, for which, in the data set with IR-A, the “% Insulin Activity IR-A” value was 0.2%.
Regarding “B^1(H5,Y16,L17)25-C^1-A^1(N18,21) (GPEHLCGAELVDALYLVCGDRGFYGYGSSSRRAPQTGIVDECCFRSCDLRRLENYCN) [MIU-57, single chain analog with 20 kDa PEG linked to the N-terminus of the B chain]”, in the data set with IR-B, the “% Insulin Activity IR-B” value amounted to 1.1%. The “% Insulin Activity IR-A” value with IR-A worked out at 3.1%.
“B^1(H5,Y16,L17, K22)25-C^1(K8)-A^1(N18,21) (GPEHLCGAELVDALYLVCGDKGFYGYGSSSRKAPQTGIVDECCFRSCDLRRLENYCN) [MIU-68, two 10K PEG chains, at the N-terminus and at amino acid B22]”: the “% Insulin Activity IR-A” value with IR-A was 0.4%.
Take “Insulin: native human insulin, 51 amino acid heteroduplex of A chain SEQ ID NO: 1 and B chain SEQ ID NO: 2 [reference compound]”: the EC50 was determined as 23.4 nM in [5] (setting [8]); 6.16 nM in data set [5] (average measured potency at 24, 48, 72 and 96 hours, read-out: EC50).
With “MIU-58: dimer of two single chain analogs B1(H5,Y16,L17)25-C1-A1(N18,21) linked head to head via 20 kDa PEG (GPEHLCGAELVDALYLVCGDRGFYGYGSSSRRAPQTGIVDECCFRSCDLRRLENYCN; disulfide 18-56, 42-47, 6-43; also: dimer of two chains joined head to head (B1 N-termini) via 20 kDa PEG)”, the “blood glucose lowering in insulin tolerance test (result in words)” value in the data set with blood glucose is “less potent than the parent compound, but is still active”. For the same molecule, the “% Insulin Activity IR-B” value in the data set with IR-B was found to be 5.8%. Moreover, the “% Insulin Activity IR-A” value with IR-A came out at 19.7%.

B1: … AHLVDALYLVCGDRGFYGYGSSSRRAPQTGIVDECCHRSCDLRRLENYCN (protein, listed as Homo sapiens)
chain: MGSSSSKAPPPSLPSPSRLPGPSDTPILPQEEEEEKGPEHLCGAHLVDALYLVCGDRGFYGYGSSSRRAPQTGIVDECCHRSCDLRRLENYCN
On to B1, for which, in the data set on blood glucose, the “blood glucose lowering in insulin tolerance test (result in words)” value was “potent insulin receptor agonists”. Besides, the EC50 with IGF-1 receptor [2] was found to be 216 nM; with IGF-1 receptor [3] (setting [9]), 26.7 nM; in [6] (Table 15, read-out: Receptor Phosphorylation IR-A- EC50), 0.985 nM; in [7] (setting [10]), 4.34 nM.

B2: DP20LysC: DP20 cleaved at the lysine of CTP to produce a two chain insulin (protein)
chain 1: GPEHLCGAHLVDALYLVCGDRGFYSSSSRAPPPSLPSPSRLPGPSDTPILPQK
chain 2: GIVDECCHRSCDLRRLENYCN
With B2, the EC50 in [5] (setting [8]) was found to be 8.19 nM; with IGF-1 receptor [2], 50 nM; with IGF-1 receptor [3] (setting [9]) it was 13.3 nM; in data set [7] (setting [10]), 1.33 nM; in [7] (read-out: EC50 values (in nM), phosphorylation at the insulin subtype B receptor, experiment of FIG. 18B), 2.44 ± 1.3 nM. In addition, the “in vitro phosphorylation activity at the insulin subtype A receptor (result in words)” value in data set [6] (FIGS. 21, 23) is “potency similar to native insulin”.
